Data reported in patent US20030022355A1.

Target: fiber receptor (cellular receptor for wild-type adenoviral fiber protein)
Test: competition on A549 cells; labelled competitor GV10 UTV; soluble fiber at 0 to about 10 ug/ml

soluble wild-type fiber protein
percent of GV10 UTV binding inhibited: 40%
